Laboratory results from patent publication US20250136677A1 (ZOETIS SERVICES, published 2025).

Assays:
[1] = target: T1, wildtype feline IL-31 protein (Feline_IL31_wildtype) (feline)
T1 sequence: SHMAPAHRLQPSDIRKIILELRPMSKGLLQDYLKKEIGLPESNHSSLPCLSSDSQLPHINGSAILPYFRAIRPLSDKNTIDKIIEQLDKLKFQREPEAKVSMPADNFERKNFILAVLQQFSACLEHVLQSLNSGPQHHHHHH

[2] = target: T1, wildtype feline IL-31 protein (Feline_IL31_wildtype) (feline); assay: Biacore, feline IL-31 chip, mAb 100 nM, share of points within parent mean +/-3 SD
[3] = target: T2, wildtype feline IL-31 protein (Feline_IL31_wildtype) (feline); assay: indirect ELISA, IL-31 protein coated
T2 construct: Full length feline IL-31 with C-terminal His tag, secreted from ExpiCHO cells; also called fIL-31
T2 chain: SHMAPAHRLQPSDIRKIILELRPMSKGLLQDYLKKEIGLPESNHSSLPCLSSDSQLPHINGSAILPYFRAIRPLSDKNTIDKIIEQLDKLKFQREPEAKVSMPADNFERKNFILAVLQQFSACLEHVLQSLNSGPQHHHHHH
Protocol: (§1) For the indirect ELISA method, antibody binding to wildtype and feline IL-31 15H05 mutant proteins was assessed. All nine canine monoclonal antibodies (ZIL1, ZIL8, ZIL8, ZIL11, ZIL69, ZIL94, ZIL154, ZIL159, and ZIL171) were capable of binding to wildtype feline IL-31 and binding was impacted by mutations in the mAb 15H05 epitope region confirming the correct binding phenotype determined during the initial screening used to identify them. In comparison, the 11E12 antibody bound to the wild-type feline IL-31 and its binding was not impacted by the mutations in the 15H05 epitope region as evidenced by the data in FIG. 4. To confirm binding, biacore analysis was performed using canine, feline, equine, human, feline 15H05 mutant, and feline 11E12 mutant IL-31 proteins as surfaces and a single test concentration of antibody. Similar to ELISA observations, all antibodies tested bound to wildtype feline IL-31. In agreement with the data described above in this section, mouse antibodies 11E12 and 15H05 both bound to canine and feline IL-31 surfaces. Three additional antibodies where shown to have this dual binding property, ZIL69 (partial canine binding), ZIL94, and ZIL159. From this group of nine fully canine antibodies, only ZIL1 and ZIL9 cross-reacted with equine IL-31. Of note, antibody 15H05 was the only one of all assayed herein that bound to canine, feline, and equine IL-31 indicating some level of epitope conservation across the three species. In contrast, none of the antibodies described herein bound to human IL-31. Additional biacore surfaces were used to verify ELISA observations showing differential binding of antibodies to wildtype feline IL-31 and two proteins with mutations in the 15H05 (15H05 mutant) or 11E12 (11E12 mutant) epitopes. […] In agreement with the ELISA results, all fully canine antibodies were impacted by the 15H05 mutation with the exception of ZIL94, ZIL154, and ZIL171 (partially affected). Differing results can be attributed to differences in the two assay methodologies.

[4] = target: T3, mutant feline IL-31 15H05 protein (Feline_IL31_15H05_mutant) (feline); assay: indirect ELISA, IL-31 protein coated
T3 construct: also called feline 15H05 mutant; 15H05 IL-31 mutant
T3 chain: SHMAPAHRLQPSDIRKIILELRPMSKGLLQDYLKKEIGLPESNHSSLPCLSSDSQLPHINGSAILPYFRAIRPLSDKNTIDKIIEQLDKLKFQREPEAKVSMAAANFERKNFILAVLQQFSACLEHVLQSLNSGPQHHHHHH
Protocol: as §1

[5] = target: T2, wildtype feline IL-31 protein …; assay: SPR (Biacore), IL-31 on chip, 1:1 fit
Procedure, shortened: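 IL-31 was amine-coupled (NHS/EDC) to the chip at 5 μg/mL and quenched with ethanolamine, and candidate mAbs were flowed over it as analytes. Binding curves were fitted to a 1:1 model.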

[6] = target: T2, wildtype feline IL-31 protein …; assay: cell-based or functional assay
[7] = target: T4, equine IL-31 protein (Equine_IL31) (equine); assay: SPR (Biacore), IL-31 surface, single antibody concentration
T4 construct: Recombinant equine IL-31
T4 chain: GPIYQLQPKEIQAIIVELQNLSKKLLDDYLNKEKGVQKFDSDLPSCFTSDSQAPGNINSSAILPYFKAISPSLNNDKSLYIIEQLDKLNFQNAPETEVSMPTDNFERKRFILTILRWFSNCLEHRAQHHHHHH
Protocol: (§2) For the indirect ELISA method, antibody binding to wildtype and feline IL-31 15H05 mutant proteins was assessed. All nine canine monoclonal antibodies (ZIL1, ZIL8, ZIL8, ZIL11, ZIL69, ZIL94, ZIL154, ZIL159, and ZIL171) were capable of binding to wildtype feline IL-31 and binding was impacted by mutations in the mAb 15H05 epitope region confirming the correct binding phenotype determined during the initial screening used to identify them. In comparison, the 11E12 antibody bound to the wild-type feline IL-31 and its binding was not impacted by the mutations in the 15H05 epitope region as evidenced by the data in FIG. 4. To confirm binding, biacore analysis was performed using canine, feline, equine, human, feline 15H05 mutant, and feline 11E12 mutant IL-31 proteins as surfaces and a single test concentration of antibody. Similar to ELISA observations, all antibodies tested bound to wildtype feline IL-31. In agreement with the data described above in this section, mouse antibodies 11E12 and 15H05 both bound to canine and feline IL-31 surfaces. Three additional antibodies where shown to have this dual binding property, ZIL69 (partial canine binding), ZIL94, and ZIL159. From this group of nine fully canine antibodies, only ZIL1 and ZIL9 cross-reacted with equine IL-31. Of note, antibody 15H05 was the only one of all assayed herein that bound to canine, feline, and equine IL-31 indicating some level of epitope conservation across the three species. In contrast, none of the antibodies described herein bound to human IL-31. Additional biacore surfaces were used to verify ELISA observations showing differential binding of antibodies to wildtype feline IL-31 and two proteins with mutations in the 15H05 (15H05 mutant) or 11E12 (11E12 mutant) epitopes.

human IL-31 = target: T5, human IL-31 (human, UniProt Q6EBC2 24-164); assay: as above
T5 sequence: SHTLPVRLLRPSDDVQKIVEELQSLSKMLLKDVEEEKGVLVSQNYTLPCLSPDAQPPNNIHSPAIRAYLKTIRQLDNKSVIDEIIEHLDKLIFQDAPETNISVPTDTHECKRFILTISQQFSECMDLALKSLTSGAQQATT
Protocol: as §2

[8] = target: T6, canine IL-31 protein (Canine_IL31) (canine); assay: SPR (Biacore), IL-31 on chip, 1:1 fit
T6 chain: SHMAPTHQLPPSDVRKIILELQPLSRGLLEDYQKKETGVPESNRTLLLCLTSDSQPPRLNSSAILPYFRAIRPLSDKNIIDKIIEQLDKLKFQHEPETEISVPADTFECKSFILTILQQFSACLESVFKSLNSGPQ

[9] = target: T6, canine IL-31 protein (Canine_IL31); assay: cell-based or functional assay
[10] = target: T2, wildtype feline IL-31 protein …; assay: cell-based or functional assay
[11] = target: T6, canine IL-31 protein (Canine_IL31)

B1: A14 (antibody, V domains shown)
VH: QVLLVQSGAEVRTPGASVKIFCKASGYSFTSYTIHWLRQAPAQGLEWMGNINPTSGYTENNQRFKDRLTLTADTSTNTAYMELSSLRSADTAMYYCARWGFKYDGEWSFDVWGAGTTVTVSS
VL: EIQMTQSPSSLSASPGDRVTITCRASQGISIWLSWYQQKPGNIPKVLIAKASNLHIGVPSRFSGSGSGTDFTLTISSLEPEDAATYYCLQSQTYPLTFGGGTKLEIK
[1]
  % Inhibition Relative to Parent (pSTAT, FCWF-4 cells): -5.4%
[2]
  Binding Similarity score: 8.4

B2: A22 (antibody, V domains shown)
VH: QVLLVQSGAEVRTPGASVKIFCKASGYSFTSYTIHWLRQAPAQGLEWMGNINPTSGYTENNQRFKDRLTLTADTSTNTAYMELSSLRSADTAMYYCARWGFKYDGEWSFDVWGAGTTVTVSS
VL: EIQMTQSPSSLSASPGDRVTITCRASQGISIWLSWYQQKPGNIPKVLINKASNLHIGVPSRFSGSGSGTDFTLTISSLEPEDAATYYCLQAQTYPLTFGGGTKLEIK
[1]
  % Inhibition Relative to Parent (pSTAT, FCWF-4 cells): -4.3%
[2]
  Binding Similarity score: 8.34

B3: mouse anti IL-31 antibody 11E12 (antibody, V domains shown)
VH: QVQLQQSGAELVKPGASVKLSCKASGYTFKYYDINWVRQRPEQGLEWIGWIFPGDGGTKYNETFKGKATLTTDKSSSTAYMQLSRLTSEDSAVYFCARGGTSVIRDAMDYWGQGTSVTVSS
VL: DIVLTQSPASLAVSLGQRATISCRASESVDNYGISFMHWYQQKPGQPPKLLIYRASNLESGIPARFSGSGSRTDFTLTINPVETDDVATYYCQQSNKDPLTFGAGTKLELK
notes: Mouse monoclonal comparison antibody; also called MU-11E12; mouse 11E12
[3]
  ELISA OD: 1.15 OD
[4]
  ELISA OD: 1.33 OD
[5]
  Kd: 0.738 nM
  koff: 0.000123 s⁻¹
  kon: 167000 M⁻¹ s⁻¹
[6]
  IC50, inhibition of feline IL-31-induced STAT3 phosphorylation, canine DH82 cells: 2.47 µg/mL
  IC50, inhibition of feline IL-31-induced STAT3 phosphorylation, feline FCWF4 cells: 2.01 µg/mL
[7]
  binding result: no binding
Human IL-31
  binding result: no binding
[8]
  Kd: 0.000763 nM
  koff: 4.8e-07 s⁻¹
  kon: 629000 M⁻¹ s⁻¹

B4: ZIL94 (recombinant fully canine antibody) (antibody, V domains shown)
VH: EVQLVDSGGDLVKPGGSLRLSCVASGFTFSTYFMSWVRQAPGRGLQWVALISSDGSGTYYADAVKGRFTISRDNAKNTLYLQMNSLRAEDTAMYYCAIFWRAFNDWGQGTLVTVSS
VL: QTVVIQEPSLSVSPGGTVTLTCGLNSGSVSTSNYPGWYQQTRGRTPRTIIYDTGSRPSGVPNRFSGSISGNKAALTITGAQPEDEADYYCSLYTDSDILVFGGGTHLTVLR
notes: also called CAN-ZIL94
[3]
  ELISA OD: 1.67 OD
[4]
  ELISA OD: 1.3 OD
[7]
  binding result: no binding

B5: 15H05 mouse:canine chimera (antibody)
heavy: QVQLQQSAAELARPGASVKMSCKTSGYTFTSYTIHWIKQRPGQGLEWIGNINPTSGYTENNQRFKDKTTLTVDRSSNTAYLQLHSLTSEDSAVYFCARWGFKYDGEWSFDVWGAGTTVTVSSASTTAPSVFPLAPSCGSTSGSTVALACLVSGYFPEPVTVSWNSGSLTSGVHTFPSVLQSSGLYSLSSMVTVPSSRWPSETFTCNVAHPASKTKVDKPVPKRENGRVPRPPDCPKCPAPEMLGGPSVFIFPPKPKDTLLIARTPEVTCVVVDLDPEDPEVQISWFVDGKQMQTAKTQPREEQFNGTYRVVSVLPIGHQDWLKGKQFTCKVNNKALPSPIERTISKARGQAHQPSVYVLPPSREELSKNTVSLTCLIKDFFPPDIDVEWQSNGQQEPESKYRTTPPQLDEDGSYFLYSKLSVDKSRWQRGDTFICAVMHEALHNHYTQESLSHSPGK
light: DIQMNQSPSSLSASLGDTITVTCRASQGISIWLSWYQQKPGNIPKVLINKASNLHIGVPPRFSGSGSGTHFTLTITSLQPEDIATYYCLQSQTYPLTFGGGTKLEINRNDAQPAVYLFQPSPDQLHTGSASVVCLLNSFYPKDINVKWKVDGVIQDTGIQESVTEQDKDSTYSLSSTLTMSSTEYLSHELYSCEITHKSLPSTLIKSFQRSEC
[6]
  IC50, inhibition of feline IL-31-induced STAT3 phosphorylation, feline FCWF4 cells: 3.11 µg/mL
[9]
  IC50 against canine IL-31 (pSTAT3; cell type not stated for this pair of values): 12.5 µg/ml
[10]
  IC50, feline IL-31 signaling on the canine DH82 cell line (pSTAT3): 0.71 µg/ml
[11]
  IC50, inhibition of canine IL-31-induced STAT3 phosphorylation, canine DH82 cells: 12.7 µg/mL
